These results are taken from publication doi:10.1101/2025.09.11.675134, “Biodistribution-Driven Discovery Identifies a Glycosidase-Cleavable Linker to Reprogram Radiotheranostics” (bioRxiv, 2025).

This data set in a line: Ex vivo biodistribution screen of 111In-labeled DOTA-TATE derivatives in normal mice. Also on record: species or system athymic nude mice. Conditions: 2 h post-injection; for tissue uptake at 2 h: athymic nude, mouse, iv, 1 ug per mouse, total radioactivity; for Relative kidney retention, % rel. to DOTA-TATE: normal mice, 111In-DOTA-TATE set as 100%. As for the experimental part:
The panel of 10 compounds were then tested in an initial biodistribution screen of 9 organs assessed in non-tumor-bearing mice at specific timepoints following administration of the radioconjugates. Each agent was initially labeled with ^111In, a long-lived gamma-emitting radioisotope suitable for biodistribution studies, with high radiochemical yields and purity (Fig. S12). The compounds were then dosed (1.55 ± 0.12 MBq; 1 μg per mouse) in healthy athymic nude mice via intravenous (i.v.) injection in phosphate-buffered saline (PBS; vehicle). After 2 hours, the mice were sacrificed and ex vivo biodistribution analysis was performed (Fig. 2). […] This was an expected finding because this variant was designed to bind serum albumin.
Radiolabeling and In Vivo Evaluation of DOTA-TATE Variants:
Biodistribution, PET Quantification, and Dosimetry
Radiolabeling: To perform the initial biodistribution screen, radiolabeling of 10 compounds, including DOTA-TATE, was carried out using 111In (Cardinal Health, Arbutus, MD, USA), an affordable and readily available gamma -emitting radioisotope with a moderate half -life (2.83 days), which affords efficient DOTA radiolabeling and facilitates handling. 111InCl3 (28 – 36 MBq) was diluted with 0.4 M NH 4OAc buffer (pH 5.2) and combined with DOTA -TATE variants (20 μg). The solution was mixed well and then incubated at 90 °C for 30 min.
Radiolabeling efficiency and radiochemical purity were determined by radio -TLC and radio - HPLC. Radiochemical yield was >95% and the material was used without further purification.
The specific activity was 1.55 ± 0.12 TBq/g (41.9 ± 3.2 Ci/g). […]
Radio-instant thin-layer chromatography (radio-iTLC) was performed using silicic acid-impregnated glass microfiber paper strips (iTLC-SA, Varian, Lake Forest, CA, USA) as the stationary phase, and 50 mM EDTA in 100 mM NH4OAc (pH 5.5) as the mobile phase, analyzed with a radio-TLC scanner (AR-2000, Eckert-Ziegler, Wilmington, MA, USA). For Ac-225, equilibration was allowed for at least 12 hours before scanning the TLC strips to confirm initial scans. Radio-HPLC analysis (Agilent 1260 Infinity II, Agilent Technologies Inc., Santa Clara, CA, USA) was conducted on a TSK- Octadecyl-4PW column (5 µm, 4.6 mm ID × 15 cm, Tosoh
Co. Tokyo, Japan) with gradient elution using 0.1% trifluoroacetic acid in water as mobile phase A and 0.1% trifluoroacetic acid in acetonitrile as Mobile phase B. The elution sequence was 0-5 […]
PET imaging and biodistribution: For initial biodistribution screen studies, normal mice were administered 1.4 – 1.8 MBq (1 μg) of 111In-DOTA-TATE variants via tail vein injection and biodistribution studies were conducted at 2 hours post -injection (n = 2 – 4 per cohort).
For studies involving three variants (DOTA -TATE, DOTA-MVK(ε)-TATE, and DOTA-β-Gal-TATE), AR42J cells (5 × 10^6 cells per mouse) were subcutaneously inoculated into the right shoulder of the mice. Tumors were allowed to grow for 3 weeks, reaching a volume of 100 –200 mm³ before being used in subsequent experiments. For biodistribution or PET imaging studies, mice bearing subcutaneous AR42J tumors were administered 1.4 – 1.8 MBq (1 μg) of 111In-labeled DOTA-TATE variants or 2.7 – 4.9 MBq (1 μg) of 86Y-labeled DOTA-TATE variants via tail vein injection. Biodistribution studies with 111In-labeled DOTA -TATE variants were performed 1 hour post -injection (n = 3 per cohort), while studies with 86Y-labeled DOTA-TATE variants were conducted at 1, 4, and 24 hours post -injection (n = 3 per cohort). Mice were euthanized by CO2 asphyxiation, and 10 tissues, including tumors, were collected. All samples were weighed and counted on a gamma counter (2480 Wizard 3, Perkin Elmer Inc., Waltham, MA, USA). Results are presented as percentage of injected activity per gram (%IA/g) and mean values ± standard deviations.
PET imaging to assess the uptake of three 86Y-labeled DOTA-TATE variants (2.7 – 4.9 MBq, 1 […]

Where [1] appears, read: kidney, normal athymic nude mice, i.v. 1 μg, ex vivo, mean (± SD), n = 2–4, read-out: Kidney uptake.
[2] abbreviates: femur, normal athymic nude mice, i.v. 1 μg, ex vivo, mean, n = 2–4, read-out: Femur uptake.
Where [3] appears, read: heart, normal athymic nude mice, i.v. 1 μg, ex vivo, mean, n = 2–4, read-out: Heart uptake.
The mark [4] stands for this setting: intestine, normal athymic nude mice, i.v. 1 μg, ex vivo, mean, n = 2–4, read-out: Intestine uptake.
Where [5] appears, read: liver, normal athymic nude mice, i.v. 1 μg, ex vivo, mean, n = 2–4, read-out: Liver uptake.
Where [6] appears, read: lung, normal athymic nude mice, i.v. 1 μg, ex vivo, mean, n = 2–4, read-out: Lung uptake.
The mark [7] stands for this setting: muscle, normal athymic nude mice, i.v. 1 μg, ex vivo, mean, n = 2–4, read-out: Muscle uptake.
The mark [8] stands for this setting: spleen, normal athymic nude mice, i.v. 1 μg, ex vivo, mean, n = 2–4, read-out: Spleen uptake.
Where [9] appears, read: blood, normal athymic nude mice, i.v. 1 μg (1.4–1.8 MBq), ex vivo gamma counting, mean, n = 2–4, read-out: Blood uptake.

Each structure is given as a SMILES string. Like-named read-outs stand apart in the source and are kept apart here. Positions of bridges follow the written chain, without caps; N, C: chain ends. Non-standard residues stand in square brackets, D forms with d. Residues, ends and D or L forms follow the SMILES beside them. *: point of attachment. X1 = C[C@H](CCC(=O)*)[C@H]1CC[C@H]2[C@@H]3[C@H](O)C[C@@H]4C[C@@H](NC(=O)CNC(=O)CN5CCN(CC(=O)O)CCN(CC(=O)O)CCN(CC(=O)O)CC5)CC[C@]4(C)[C@H]3C[C@H](O)[C@]12C; DOTA = O=C(O)CN1CCN(CC(=O)O)CCN(CC(=O)*)CCN(CC(=O)O)CC1

Turning to `CSCC[C@H](NC(=O)CN1CCN(CC(=O)O)CCN(CC(=O)O)CCN(CC(=O)O)CC1)C(=O)N[C@H](C(=O)N[C@@H](CCCCNC(=O)CCCC(=O)N[C@H](Cc1ccccc1)C(=O)N[C@H]1CSSC[C@@H](C(=O)N[C@H](C(=O)O)[C@@H](C)O)NC(=O)[C@H]([C@@H](C)O)NC(=O)[C@H](CCCCN)NC(=O)[C@@H](Cc2c[nH]c3ccccc23)NC(=O)[C@H](Cc2ccc(O)cc2)NC1=O)C(=O)O)C(C)C` [DOTA-MVK(ε)-TATE], the tissue uptake at 2 h under setting [1] is 4 %ID/g.
Regarding `C[C@H](CCC(=O)NCC(=O)N[C@H](Cc1ccccc1)C(=O)N[C@H]1CSSC[C@@H](C(=O)N[C@H](C(=O)O)[C@@H](C)O)NC(=O)[C@H]([C@@H](C)O)NC(=O)[C@H](CCCCN)NC(=O)[C@@H](Cc2c[nH]c3ccccc23)NC(=O)[C@H](Cc2ccc(O)cc2)NC1=O)[C@H]1CC[C@H]2[C@@H]3[C@H](O)C[C@@H]4C[C@@H](NC(=O)CNC(=O)CN5CCN(CC(=O)O)CCN(CC(=O)O)CCN(CC(=O)O)CC5)CC[C@]4(C)[C@H]3C[C@H](O)[C@]12C` [^111In-DOTA-Chol-TATE, metal not drawn] (X1-G[dF]CY[dW]KTCT-OH; disulfide 3-8), the “Relative kidney retention, % rel. to DOTA-TATE” value was 159%. Further, the tissue uptake at 2 h under setting [2] was 0.36 %ID/g. Moreover, the tissue uptake at 2 h under setting [3] turned out to be 0.55 %ID/g. In addition, the tissue uptake at 2 h under setting [4] stood at 0.83 %ID/g. Besides, the tissue uptake at 2 h under setting [5] was determined as 1.32 %ID/g. For the same compound, under setting [6], the tissue uptake at 2 h was determined as 1.86 %ID/g. Besides, the tissue uptake at 2 h under setting [7] amounted to 0.15 %ID/g. The tissue uptake at 2 h under setting [8] turned out to be 0.48 %ID/g.
For the compound `C[C@@H](O)[C@H](NC(=O)[C@@H]1CSSC[C@H](NC(=O)[C@@H](Cc2ccccc2)NC(=O)[C@@H](Cc2ccc(O)cc2)NC(=O)CNC(=O)CN2CCN(CC(=O)O)CCN(CC(=O)O)CCN(CC(=O)O)CC2)C(=O)N[C@@H](Cc2ccc(O)cc2)C(=O)N[C@H](Cc2c[nH]c3ccccc23)C(=O)N[C@@H](CCCCN)C(=O)N[C@@H]([C@@H](C)O)C(=O)N1)C(=O)O` [^111In-DOTA-GY*-TATE, metal not drawn] ({DOTA}-G[dY][dF]CY[dW]KTCT-OH; disulfide 4-9), the “Relative kidney retention, % rel. to DOTA-TATE” value amounted to 865%. Under setting [9], the tissue uptake at 2 h came out at 0.06 %ID/g. For the same compound, under setting [2], the tissue uptake at 2 h was found to be 0.1 %ID/g. In addition, the tissue uptake at 2 h under setting [3] came to 0.06 %ID/g. Moreover, under setting [4], the tissue uptake at 2 h is 0.63 %ID/g. For the same compound, the tissue uptake at 2 h under setting [5] stood at 0.17 %ID/g. For the same compound, the tissue uptake at 2 h under setting [6] was 1.17 %ID/g. For the same compound, under setting [7], the tissue uptake at 2 h is 0.02 %ID/g. Besides, the tissue uptake at 2 h under setting [8] worked out at 0.16 %ID/g.
On to `C[C@@H](O)[C@H](NC(=O)[C@@H]1CSSC[C@H](NC(=O)[C@@H](Cc2ccccc2)NC(=O)CNC(=O)[C@H](CC(=O)O)NC(=O)[C@H](CC(=O)O)NC(=O)[C@H](CC(=O)O)NC(=O)CNC(=O)CN2CCN(CC(=O)O)CCN(CC(=O)O)CCN(CC(=O)O)CC2)C(=O)N[C@@H](Cc2ccc(O)cc2)C(=O)N[C@H](Cc2c[nH]c3ccccc23)C(=O)N[C@@H](CCCCN)C(=O)N[C@@H]([C@@H](C)O)C(=O)N1)C(=O)O` [^111In-DOTA-GDDDG-TATE, metal not drawn] ({DOTA}-GDDDG[dF]CY[dW]KTCT-OH; disulfide 7-12), for which the “Relative kidney retention, % rel. to DOTA-TATE” value stood at 222%. In addition, the tissue uptake at 2 h under setting [9] came to 0.05 %ID/g. For the same compound, under setting [2], the tissue uptake at 2 h was determined as 0.07 %ID/g. For the same compound, under setting [3], the tissue uptake at 2 h is 0.04 %ID/g. Also, the tissue uptake at 2 h under setting [4] is 0.11 %ID/g. Also, the tissue uptake at 2 h under setting [5] was 0.07 %ID/g. Also, the tissue uptake at 2 h under setting [6] worked out at 0.25 %ID/g. In addition, the tissue uptake at 2 h under setting [7] is 0.02 %ID/g. In addition, the tissue uptake at 2 h under setting [8] turned out to be 0.05 %ID/g. Moreover, for the setting “normal athymic nude mice, i.v. 1 μg, ex vivo, mean (± SD), n = 2–4”, the Kidney uptake is reported as 13.45 %IA/g.
On to `C[C@@H](O)[C@H](NC(=O)[C@@H]1CSSC[C@H](NC(=O)[C@@H](Cc2ccccc2)NC(=O)[C@H](Cc2ccc(O)cc2)NC(=O)CNC(=O)CN2CCN(CC(=O)O)CCN(CC(=O)O)CCN(CC(=O)O)CC2)C(=O)N[C@@H](Cc2ccc(O)cc2)C(=O)N[C@H](Cc2c[nH]c3ccccc23)C(=O)N[C@@H](CCCCN)C(=O)N[C@@H]([C@@H](C)O)C(=O)N1)C(=O)O` [^111In-DOTA-GY-TATE, metal not drawn] ({DOTA}-GY[dF]CY[dW]KTCT-OH; disulfide 4-9), for which the “Relative kidney retention, % rel. to DOTA-TATE” value is given as 297%. Under setting [9], the tissue uptake at 2 h is 0.09 %ID/g. Also, the tissue uptake at 2 h under setting [2] came out at 0.14 %ID/g. Moreover, under setting [3], the tissue uptake at 2 h amounted to 0.09 %ID/g. Further, the tissue uptake at 2 h under setting [4] is 0.74 %ID/g. Under setting [5], the tissue uptake at 2 h was 0.18 %ID/g. Further, under setting [6], the tissue uptake at 2 h turned out to be 1.07 %ID/g. In addition, the tissue uptake at 2 h under setting [7] came to 0.03 %ID/g. For the same compound, the tissue uptake at 2 h under setting [8] is 0.17 %ID/g.
For `C[C@@H](O)[C@H](NC(=O)[C@@H]1CSSC[C@H](NC(=O)[C@@H](Cc2ccccc2)NC(=O)CN2CCN(CC(=O)O)CCN(CC(=O)O)CCN(CC(=O)O)CC2)C(=O)N[C@@H](Cc2ccc(O)cc2)C(=O)N[C@H](Cc2c[nH]c3ccccc23)C(=O)N[C@@H](CCCCN)C(=O)N[C@@H]([C@@H](C)O)C(=O)N1)C(=O)O` [DOTA-TATE, reference compound], the tissue uptake at 2 h under setting [1] came to 6.1 %ID/g.
With `C[C@H](CCC(=O)NCC(=O)N[C@H](Cc1ccccc1)C(=O)N[C@H]1CSSC[C@@H](C(=O)N[C@H](C(=O)O)[C@@H](C)O)NC(=O)[C@H]([C@@H](C)O)NC(=O)[C@H](CCCCN)NC(=O)[C@@H](Cc2c[nH]c3ccccc23)NC(=O)[C@H](Cc2ccc(O)cc2)NC1=O)[C@H]1CC[C@H]2[C@@H]3[C@H](O)C[C@@H]4C[C@@H](NC(=O)CNC(=O)CN5CCN(CC(=O)O)CCN(CC(=O)O)CCN(CC(=O)O)CC5)CC[C@]4(C)[C@H]3C[C@H](O)[C@]12C` [DOTA-G-Chol-G-TATE] (X1-G[dF]CY[dW]KTCT-OH; disulfide 3-8), the tissue uptake at 2 h was determined as 1.7 %ID/g under setting [9] and 9.6 %ID/g under setting [1].
As to `CSCC[C@H](NC(=O)CN1CCN(CC(=O)O)CCN(CC(=O)O)CCN(CC(=O)O)CC1)C(=O)N[C@H](C(=O)N[C@@H](CCCCN)C(=O)N[C@H](Cc1ccccc1)C(=O)N[C@H]1CSSC[C@@H](C(=O)N[C@H](C(=O)O)[C@@H](C)O)NC(=O)[C@H]([C@@H](C)O)NC(=O)[C@H](CCCCN)NC(=O)[C@@H](Cc2c[nH]c3ccccc23)NC(=O)[C@H](Cc2ccc(O)cc2)NC1=O)C(C)C` [DOTA-MVK-TATE] ({DOTA}-MVK[dF]CY[dW]KTCT-OH; disulfide 5-10), the tissue uptake at 2 h under setting [1] worked out at 76 %ID/g.
